In patent publication US20240425885:

Columns and labels:
Assay in all cases: cleavage_in_vitro
[1] = tested on: T1, OMNI-122 (metagenomic, unknown); details: TXTL; PAM NRYTTTYN
T1 sequence: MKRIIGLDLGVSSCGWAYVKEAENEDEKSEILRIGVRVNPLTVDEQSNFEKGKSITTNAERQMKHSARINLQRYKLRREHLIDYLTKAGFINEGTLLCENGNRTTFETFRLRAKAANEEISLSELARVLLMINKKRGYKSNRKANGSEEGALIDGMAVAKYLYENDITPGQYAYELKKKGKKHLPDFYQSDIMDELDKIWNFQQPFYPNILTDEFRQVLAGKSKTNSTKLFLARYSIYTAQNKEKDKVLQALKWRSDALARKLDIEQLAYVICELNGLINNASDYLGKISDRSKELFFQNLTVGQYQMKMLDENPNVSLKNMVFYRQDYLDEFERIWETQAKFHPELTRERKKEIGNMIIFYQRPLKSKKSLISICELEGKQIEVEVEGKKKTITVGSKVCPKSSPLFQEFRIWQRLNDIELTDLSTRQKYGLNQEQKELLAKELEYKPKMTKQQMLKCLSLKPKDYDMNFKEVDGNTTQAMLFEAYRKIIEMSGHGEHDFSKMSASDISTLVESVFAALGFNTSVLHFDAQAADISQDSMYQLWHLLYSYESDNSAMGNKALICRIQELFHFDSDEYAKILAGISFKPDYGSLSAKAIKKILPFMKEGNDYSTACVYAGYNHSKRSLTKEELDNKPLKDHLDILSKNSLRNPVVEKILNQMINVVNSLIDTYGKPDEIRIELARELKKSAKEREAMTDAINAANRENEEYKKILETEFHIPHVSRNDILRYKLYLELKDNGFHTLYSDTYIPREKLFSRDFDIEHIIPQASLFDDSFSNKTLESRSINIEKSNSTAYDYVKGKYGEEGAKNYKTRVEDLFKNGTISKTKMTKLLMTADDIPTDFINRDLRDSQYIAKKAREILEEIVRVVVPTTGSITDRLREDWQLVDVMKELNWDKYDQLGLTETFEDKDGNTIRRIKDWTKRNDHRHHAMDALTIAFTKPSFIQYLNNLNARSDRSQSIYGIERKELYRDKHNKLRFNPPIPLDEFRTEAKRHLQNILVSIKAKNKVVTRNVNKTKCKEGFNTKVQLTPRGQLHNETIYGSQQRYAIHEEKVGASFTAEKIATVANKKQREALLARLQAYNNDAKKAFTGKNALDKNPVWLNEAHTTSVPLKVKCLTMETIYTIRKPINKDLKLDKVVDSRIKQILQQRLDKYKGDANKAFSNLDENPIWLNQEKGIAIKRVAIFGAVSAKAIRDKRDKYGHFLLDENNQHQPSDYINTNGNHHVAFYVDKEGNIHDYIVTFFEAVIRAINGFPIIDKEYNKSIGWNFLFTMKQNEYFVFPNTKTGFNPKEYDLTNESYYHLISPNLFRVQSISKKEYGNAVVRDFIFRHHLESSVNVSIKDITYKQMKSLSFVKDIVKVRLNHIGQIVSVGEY

[2] = tested on: T2, OMNI-126 (metagenomic, unknown); details: TXTL; PAM NNNNAARN
T2 sequence: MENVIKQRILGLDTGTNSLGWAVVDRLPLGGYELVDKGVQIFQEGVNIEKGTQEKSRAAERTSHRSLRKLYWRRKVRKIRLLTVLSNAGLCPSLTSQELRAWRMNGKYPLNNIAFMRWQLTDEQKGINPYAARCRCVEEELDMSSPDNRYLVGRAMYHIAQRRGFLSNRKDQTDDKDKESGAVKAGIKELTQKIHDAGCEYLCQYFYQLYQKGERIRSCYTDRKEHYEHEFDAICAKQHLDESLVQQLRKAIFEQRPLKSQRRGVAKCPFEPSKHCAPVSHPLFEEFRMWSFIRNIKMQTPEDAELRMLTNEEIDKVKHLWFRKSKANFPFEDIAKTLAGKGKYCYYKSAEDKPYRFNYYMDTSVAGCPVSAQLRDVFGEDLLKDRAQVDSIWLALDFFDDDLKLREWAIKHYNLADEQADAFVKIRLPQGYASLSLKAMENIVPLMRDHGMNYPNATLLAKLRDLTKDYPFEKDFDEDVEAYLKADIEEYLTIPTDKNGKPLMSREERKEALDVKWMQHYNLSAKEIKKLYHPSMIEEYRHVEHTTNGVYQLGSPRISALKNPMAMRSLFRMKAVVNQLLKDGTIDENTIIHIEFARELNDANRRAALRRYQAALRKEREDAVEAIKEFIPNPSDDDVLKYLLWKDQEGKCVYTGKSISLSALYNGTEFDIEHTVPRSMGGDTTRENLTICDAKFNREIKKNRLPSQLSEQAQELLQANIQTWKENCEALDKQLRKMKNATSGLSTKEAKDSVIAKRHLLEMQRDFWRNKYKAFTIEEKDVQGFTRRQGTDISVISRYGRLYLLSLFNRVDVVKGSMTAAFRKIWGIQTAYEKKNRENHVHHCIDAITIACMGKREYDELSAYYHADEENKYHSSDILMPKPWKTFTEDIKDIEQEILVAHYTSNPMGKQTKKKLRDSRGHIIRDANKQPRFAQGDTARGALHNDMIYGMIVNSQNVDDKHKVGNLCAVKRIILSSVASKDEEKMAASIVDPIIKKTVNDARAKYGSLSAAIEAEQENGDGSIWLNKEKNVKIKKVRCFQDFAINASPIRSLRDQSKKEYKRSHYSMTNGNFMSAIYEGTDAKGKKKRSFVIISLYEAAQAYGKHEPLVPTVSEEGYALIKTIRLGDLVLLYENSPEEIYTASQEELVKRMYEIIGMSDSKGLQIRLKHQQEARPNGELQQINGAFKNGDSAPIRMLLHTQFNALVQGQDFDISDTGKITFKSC

[3] = tested on: T3, OMNI-123 (metagenomic, unknown); details: TXTL; PAM NNNSGYAA
T3 sequence: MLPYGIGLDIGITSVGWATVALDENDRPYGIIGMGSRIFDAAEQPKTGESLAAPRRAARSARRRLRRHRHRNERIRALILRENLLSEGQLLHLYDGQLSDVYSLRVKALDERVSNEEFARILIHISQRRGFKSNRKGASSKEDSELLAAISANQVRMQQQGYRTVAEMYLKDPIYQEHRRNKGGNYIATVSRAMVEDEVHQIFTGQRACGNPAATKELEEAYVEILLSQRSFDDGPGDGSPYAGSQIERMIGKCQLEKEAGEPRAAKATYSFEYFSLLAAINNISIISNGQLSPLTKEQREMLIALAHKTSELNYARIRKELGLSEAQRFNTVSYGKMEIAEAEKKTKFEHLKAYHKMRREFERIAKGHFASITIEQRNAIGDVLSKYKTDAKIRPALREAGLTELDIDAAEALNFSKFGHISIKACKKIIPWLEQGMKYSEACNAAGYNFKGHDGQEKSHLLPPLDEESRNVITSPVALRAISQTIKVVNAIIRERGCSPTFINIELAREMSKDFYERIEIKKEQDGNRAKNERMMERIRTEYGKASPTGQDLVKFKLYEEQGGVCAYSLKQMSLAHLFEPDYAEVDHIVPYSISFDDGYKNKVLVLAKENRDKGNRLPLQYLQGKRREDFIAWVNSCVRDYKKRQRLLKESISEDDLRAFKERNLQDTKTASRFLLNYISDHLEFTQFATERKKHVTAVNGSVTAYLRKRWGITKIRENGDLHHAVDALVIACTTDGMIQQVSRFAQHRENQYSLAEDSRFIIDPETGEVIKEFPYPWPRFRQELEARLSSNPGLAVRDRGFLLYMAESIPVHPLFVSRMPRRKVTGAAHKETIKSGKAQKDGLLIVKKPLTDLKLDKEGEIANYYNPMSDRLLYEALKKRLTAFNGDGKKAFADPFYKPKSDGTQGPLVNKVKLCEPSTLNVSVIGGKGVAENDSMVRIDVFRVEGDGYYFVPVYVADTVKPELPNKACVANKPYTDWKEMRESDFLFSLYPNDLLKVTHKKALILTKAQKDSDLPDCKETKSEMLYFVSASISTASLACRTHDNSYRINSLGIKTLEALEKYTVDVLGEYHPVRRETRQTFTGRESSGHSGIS

[4] = tested on: T4, OMNI-125 (metagenomic, unknown); details: TXTL; PAM NARNCCYN
T4 sequence: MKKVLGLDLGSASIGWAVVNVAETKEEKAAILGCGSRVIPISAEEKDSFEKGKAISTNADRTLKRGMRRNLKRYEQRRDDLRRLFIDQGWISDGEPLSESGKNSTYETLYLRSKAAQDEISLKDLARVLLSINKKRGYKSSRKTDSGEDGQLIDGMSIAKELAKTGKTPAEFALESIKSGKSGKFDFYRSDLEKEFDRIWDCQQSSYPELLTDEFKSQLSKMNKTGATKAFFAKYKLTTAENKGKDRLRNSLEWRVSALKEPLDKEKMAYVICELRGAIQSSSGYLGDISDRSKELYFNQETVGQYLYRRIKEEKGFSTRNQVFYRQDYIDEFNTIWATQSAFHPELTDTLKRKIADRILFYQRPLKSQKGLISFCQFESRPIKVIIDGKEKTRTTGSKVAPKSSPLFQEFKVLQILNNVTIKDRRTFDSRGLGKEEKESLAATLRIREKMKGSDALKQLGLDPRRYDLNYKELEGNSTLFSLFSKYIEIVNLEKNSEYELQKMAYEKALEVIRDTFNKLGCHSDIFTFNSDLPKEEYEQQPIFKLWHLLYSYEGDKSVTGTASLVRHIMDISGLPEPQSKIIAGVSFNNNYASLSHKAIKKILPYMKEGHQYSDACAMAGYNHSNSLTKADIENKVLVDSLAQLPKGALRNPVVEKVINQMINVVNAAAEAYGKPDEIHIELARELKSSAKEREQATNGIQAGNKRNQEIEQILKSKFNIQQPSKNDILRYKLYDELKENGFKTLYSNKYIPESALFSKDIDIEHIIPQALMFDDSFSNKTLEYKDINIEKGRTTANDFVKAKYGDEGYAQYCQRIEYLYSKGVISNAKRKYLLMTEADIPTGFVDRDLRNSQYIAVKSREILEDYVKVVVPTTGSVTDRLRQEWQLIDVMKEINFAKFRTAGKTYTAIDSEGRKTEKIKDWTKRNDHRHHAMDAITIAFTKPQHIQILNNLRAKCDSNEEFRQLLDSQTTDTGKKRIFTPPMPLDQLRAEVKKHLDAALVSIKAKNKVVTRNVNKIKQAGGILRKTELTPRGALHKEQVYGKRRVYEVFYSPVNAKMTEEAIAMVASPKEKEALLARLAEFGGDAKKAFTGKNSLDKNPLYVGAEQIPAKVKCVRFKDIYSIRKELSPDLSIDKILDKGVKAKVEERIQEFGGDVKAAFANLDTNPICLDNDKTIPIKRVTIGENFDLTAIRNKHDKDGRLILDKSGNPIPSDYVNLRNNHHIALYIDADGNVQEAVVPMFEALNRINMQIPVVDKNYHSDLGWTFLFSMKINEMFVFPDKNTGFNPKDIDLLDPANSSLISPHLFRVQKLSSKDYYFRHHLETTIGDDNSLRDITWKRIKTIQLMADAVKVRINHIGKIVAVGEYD

[5] = tested on: OMNI-121 (metagenomic, unknown); details: TXTL; PAM NNAAAYNN
OMNI-121 (metagenomic, unknown), sequence (chain, as listed by the source): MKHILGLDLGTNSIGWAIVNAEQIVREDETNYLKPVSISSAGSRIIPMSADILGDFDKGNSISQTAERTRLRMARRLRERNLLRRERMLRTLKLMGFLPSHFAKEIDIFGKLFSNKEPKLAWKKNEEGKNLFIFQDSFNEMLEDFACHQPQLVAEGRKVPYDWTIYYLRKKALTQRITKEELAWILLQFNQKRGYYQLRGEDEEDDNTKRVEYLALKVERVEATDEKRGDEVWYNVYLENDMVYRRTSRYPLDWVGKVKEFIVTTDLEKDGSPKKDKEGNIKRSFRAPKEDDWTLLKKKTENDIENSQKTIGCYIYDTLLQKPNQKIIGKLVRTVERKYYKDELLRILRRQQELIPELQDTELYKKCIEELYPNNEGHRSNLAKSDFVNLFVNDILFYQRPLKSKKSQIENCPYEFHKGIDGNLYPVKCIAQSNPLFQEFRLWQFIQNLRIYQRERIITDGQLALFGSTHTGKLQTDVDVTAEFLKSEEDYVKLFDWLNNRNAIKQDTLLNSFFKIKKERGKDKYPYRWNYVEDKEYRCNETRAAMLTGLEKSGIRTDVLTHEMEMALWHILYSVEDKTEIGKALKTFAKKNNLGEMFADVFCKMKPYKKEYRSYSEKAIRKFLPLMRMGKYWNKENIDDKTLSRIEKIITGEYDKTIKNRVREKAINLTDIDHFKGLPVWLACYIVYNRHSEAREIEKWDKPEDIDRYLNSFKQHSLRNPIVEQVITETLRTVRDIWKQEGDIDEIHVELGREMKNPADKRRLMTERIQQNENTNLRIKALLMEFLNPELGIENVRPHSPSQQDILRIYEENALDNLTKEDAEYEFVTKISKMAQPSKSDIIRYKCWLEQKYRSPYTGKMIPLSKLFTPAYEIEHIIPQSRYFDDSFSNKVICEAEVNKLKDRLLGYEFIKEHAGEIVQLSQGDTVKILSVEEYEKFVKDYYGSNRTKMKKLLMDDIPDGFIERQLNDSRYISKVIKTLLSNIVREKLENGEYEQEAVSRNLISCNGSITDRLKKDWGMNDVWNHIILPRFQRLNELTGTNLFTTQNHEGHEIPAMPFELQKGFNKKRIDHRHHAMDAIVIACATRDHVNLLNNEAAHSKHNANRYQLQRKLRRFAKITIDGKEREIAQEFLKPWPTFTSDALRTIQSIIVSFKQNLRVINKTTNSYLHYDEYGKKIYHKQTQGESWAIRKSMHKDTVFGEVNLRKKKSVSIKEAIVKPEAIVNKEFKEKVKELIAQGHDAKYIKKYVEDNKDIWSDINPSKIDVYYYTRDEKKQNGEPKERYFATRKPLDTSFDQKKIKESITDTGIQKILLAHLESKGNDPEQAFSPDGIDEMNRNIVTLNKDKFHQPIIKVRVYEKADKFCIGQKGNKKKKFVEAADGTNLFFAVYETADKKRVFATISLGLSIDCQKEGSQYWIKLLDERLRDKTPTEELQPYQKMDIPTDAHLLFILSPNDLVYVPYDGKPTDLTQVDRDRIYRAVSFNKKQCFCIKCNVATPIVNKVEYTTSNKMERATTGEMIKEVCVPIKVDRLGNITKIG

Sequence: GGAAGAGCAGAGCCUUGGUCUCGUUGUGAAUUGCUUUCGAAAGAAGCAAUUCACAAUAAGGAUUAUUCCGUUGUGAAAACAUUUAAGAGAGUCCUUCGUCCUUCGGAGGAUUCUUUUUU / GGAAGAGCAGAGCCTTGGTCTCNNNNNNNN / NNNNNNNNGAGACCAAGGCTCTGCTCTTCC [T2 sgRNA 25 V1 ; T2 protospacer + 8N PAM library (pbPOS T2)]
- activity (1-depletion score) [1]: 0.84

Sequence: GGAAGAGCAGAGCCUUGGUCUCGUUGUGGCUUGUUGAAGAAGAAAUUCUUCAACUUGUCACAAUAAGGCCCUUAAGGCCGAAGGUUGAAAAACCUAUGGCUCUACUUCGGUGGAGCCUUUUUU / GGAAGAGCAGAGCCTTGGTCTCNNNNNNNN / NNNNNNNNGAGACCAAGGCTCTGCTCTTCC [T2 sgRNA 28 V1 ; T2 protospacer + 8N PAM library (pbPOS T2)]
- activity (1-depletion score) [2]: 0.64

Sequence: GGAAGAGCAGAGCCUUGGUCUCGUUAUAGUUCCCUGAUAGUGAAAACUAUGAGGUUGCUAUAAUAAGGUAGUAAACCGCAGAGCUCUAACGCCUCACAUUUGUGGGGCGUUAUCUCUUUUUUU / GGAAGAGCAGAGCCTTGGTCTCNNNNNNNN / NNNNNNNNGAGACCAAGGCTCTGCTCTTCC [T2 sgRNA 26 V1 ; T2 protospacer + 8N PAM library (pbPOS T2)]
- activity (1-depletion score) [3]: 0.95

Sequence: GGAAGAGCAGAGCCUUGGUCUCGUUGUGAAUGGCUUUCGAAAUUGAAGCCAUUCACAAUAAGGAUUAUUCCGUUGUGAAAACAUUAAGAGCGGGUCGUGAGACUCGCUCUUCUGUGUUUAUUUUUU / GGAAGAGCAGAGCCTTGGTCTCNNNNNNNN / NNNNNNNNGAGACCAAGGCTCTGCTCTTCC [T2 sgRNA 27 V1 ; T2 protospacer + 8N PAM library (pbPOS T2)]
- activity (1-depletion score) [4]: 0.95

Sequence: GGAAGAGCAGAGCCUUGGUCUCGUUGUGAAUUGCUUGAAAUUCUUGAAAGAAUUUCAGCAAUUCACAAUAAGGAUUAUUCCGUUGUGAAAACAUUCAGGUUCCUGCCCUCGUCCUUUAACGGGGGCUUUUUU / GGAAGAGCAGAGCCTTGGTCTCNNNNNNNN / NNNNNNNNGAGACCAAGGCTCTGCTCTTCC [T2 sgRNA 24 V1 ; T2 protospacer + 8N PAM library (pbPOS T2)]
- activity (1-depletion score) [5]: 0.91
